These results are taken from patent US5945329A, “Customized proteases” (Carlsberg A/S, priority 1997, dated 1999).

Substrate in series [1]: CC(C)C[C@H](NC(=O)[C@H](Cc1ccccc1)NC(=O)OCc1ccccc1)C(=O)O
The series is described as follows: Hydrolysis of CBZ-X-Leu-OH substrates. The note with it: other: Table X, hydrolysis at 25° C., 10 mM sodium phosphate pH 6.5. In kind it is biochemical, yeast. On the procedure: (§1) Over-expression of selected mutant enzymes was performed according to Nielsen et al. (1990) cited supra. The mutant BamHI-BamHI PRC1 fragments of pYSP32 were inserted into the GAL expression vector pRA21 and introduced into yeast strain K2579LLR. The plasmid pRA21 is derived from p72UG (Nielsen et al. (1990) cited supra) by replacing the 918 bp BglII-SalI fragment with the 638 bp BglII-PvuII fragment of pWI3, thereby deleting the BamHI site downstream of the PRC1 gene. Mutant forms of CPD-Y were purified from culture supernatants by affinity chromatography as described in Example 1. Kinetic parameters were determined by measuring rates of hydrolysis at 25° C. of CBZ-X-Leu-OH substrates spectrophotometrically at 224 nm in 10 mM sodium phosphate buffer pH 6.5. The concentrations of substrates ranged from 0.01 to 0.5 mM. Accurate measurements were not possible with substrate concentrations exceeding 0.5 mM due to the high absorption of the substrate.

Substrate in series [2]: CC(C)C[C@H](NC(=O)[C@H](CCCCN)NC(=O)OCc1ccccc1)C(=O)O
As to the kind of experiment: Hydrolysis of CBZ-X-Leu-OH substrates. It counts as biochemical, yeast. To be noted: other: Table X and text, hydrolysis at 25° C., 10 mM sodium phosphate pH 6.5. On the procedure:
as §1

Substrate in series [3]: CC(C)C[C@H](NC(=O)[C@H](C)NC(=O)OCc1ccccc1)C(=O)O
As to the kind of experiment: Hydrolysis of CBZ-X-Leu-OH substrates. It counts as biochemical, yeast. To be noted: other: Table X, hydrolysis at 25° C., 10 mM sodium phosphate pH 6.5. Here is the method: as §1

Substrate in series [4]: CC(C)C[C@H](NC(=O)[C@H](CCC(=O)O)NC(=O)OCc1ccccc1)C(=O)O
As to the kind of experiment: Hydrolysis of CBZ-X-Leu-OH substrates. It counts as biochemical, yeast. The note with it: other: Table X and text, hydrolysis at 25° C., 10 mM sodium phosphate pH 6.5. Here is the method: as §1

Substrate in series [5]: CC(C)C[C@H](NC(=O)[C@H](CO)NC(=O)OCc1ccccc1)C(=O)O
The series is described as follows: Hydrolysis of CBZ-X-Leu-OH substrates. To be noted: other: Table X, hydrolysis at 25° C., 10 mM sodium phosphate pH 6.5. It counts as biochemical, yeast. On the procedure: as §1

Substrate in series [6]: CC(C)[C@H](NC(=O)[C@H](Cc1ccccc1)NC(=O)C=Cc1ccco1)C(=O)O
As to the kind of experiment: purified protein, by the assay type. The note with it: other: hydrolysis of FA-Phe-Val-OH.

B1: yeast carboxypeptidase Y (CPD-Y), wild type (SEQ ID NO:32) (Saccharomyces cerevisiae S288C) (protein)
chain: KIKDPKILGIDPNVTQYTGYLDVEDEDKHFFFWTFESRNDPAKDPVILWLNGGPGCSSLTGLFFELGPSSIGPDLKPIGNPYSWNSNATVIFLDQPVNVGFSYSGSSGVSNTVAAGKDVYNFLELFFDQFPEYVNKGQDFHIAGESYAGHYIPVFASEILSHKDRNFNLTSVLIGNGLTDPLTQYNYYEPMACGEGGEPSVLPSEECSAMEDSLERCLGLIESCYDSQSVWSCVPATIYCNNAQLAPYQRTGRNVYDIRKDCEGGNLCYPTLQDIDDYLNQDYVKEAVGAEVDHYESCNFDINRNFLFAGDWMKPYHTAVTDLLNQDLPILVYAGDKDFICNWLGNKAWTDVLPWKYDEEFASQKVRNWTASITDEVAGEVKSYKHFTYLRVFNGGHMVPFDVPENALSMVNEWIHGGFSL
notes: purchased Carlbiotech, Copenhagen, Denmark
Broadly, the Km is the substrate concentration at which the rate is half of its maximum. Broadly, the kcat/Km is the turnover number divided by the Michaelis constant. Take B1: the Michaelis-Menten constant (Km) came out at 36 µM in series [1], 700 µM in series [3], 70 µM in series [5] and 47 µM in series [6]. Further, the kcat in series [1] is recorded as 13600 mM/min/mM; in series [3], 25000 mM/min/mM; in series [5], 800 mM/min/mM. Besides, the kcat/Km is 380,000 min^-1 mM^-1 in series [1]; 400 M⁻¹ s⁻¹ in series [2]; 36,000 min^-1 mM^-1 in series [3]; 7330 M⁻¹ s⁻¹ in series [4]; 12,000 min^-1 mM^-1 in series [5].
